To fix the notation:
B1: GST::hGDI1 (natural protein)
chain: MDEEYDVIVLGTGLTECILSGIMSVNGKKVLHMDRNPYYGGESSSITPLEELYKRFQLLEGPPESMGRGRDWNVDLIPKFLMANGQLVKMLLYTEVTRYLDFKVVEGSFVYKGGKIYKVPSTETEALASNLMGMFEKRRFRKFLVFVANFDENDPKTFEGVDPQTTSMRDVYRKFDLGQDVIDFTGHALALYRTDDYLDQPCLETVNRIKLYSESLARYGKSPYLYPLYGLGELPQGFARLSAIYGGTYMLNKPVDDIIMENGKVVGVKSEGEVARCKQLICDPSYIPDRVRKAGQVIRIICILSHPIKNTNDANSCQIIIPQNQVNRKSDIYVCMISYAHNVAAQGKYIAIASTTVETTDPEKEVEPALELLEPIDQKFVAISDLYEPIDDGCESQVFCSCSYDATTHFETTCNDIKDIYKRMAGTAFDFENMKRKQNDVFGEAEQ
B2: 6HIS::MYC::RAB1A::6HIS (natural protein)
chain: not shown

One assay has as its target 6HIS::MYC::PIAS1::6HIS (human, UniProt O75925 1-651). The assay can be described thus: pull-down.
The assay “GST::hGDI1” has as its target B1. The assay can be described thus: pull-down.

6HIS::MYC::PIAS1::6HIS, sequence (O75925 whole entry): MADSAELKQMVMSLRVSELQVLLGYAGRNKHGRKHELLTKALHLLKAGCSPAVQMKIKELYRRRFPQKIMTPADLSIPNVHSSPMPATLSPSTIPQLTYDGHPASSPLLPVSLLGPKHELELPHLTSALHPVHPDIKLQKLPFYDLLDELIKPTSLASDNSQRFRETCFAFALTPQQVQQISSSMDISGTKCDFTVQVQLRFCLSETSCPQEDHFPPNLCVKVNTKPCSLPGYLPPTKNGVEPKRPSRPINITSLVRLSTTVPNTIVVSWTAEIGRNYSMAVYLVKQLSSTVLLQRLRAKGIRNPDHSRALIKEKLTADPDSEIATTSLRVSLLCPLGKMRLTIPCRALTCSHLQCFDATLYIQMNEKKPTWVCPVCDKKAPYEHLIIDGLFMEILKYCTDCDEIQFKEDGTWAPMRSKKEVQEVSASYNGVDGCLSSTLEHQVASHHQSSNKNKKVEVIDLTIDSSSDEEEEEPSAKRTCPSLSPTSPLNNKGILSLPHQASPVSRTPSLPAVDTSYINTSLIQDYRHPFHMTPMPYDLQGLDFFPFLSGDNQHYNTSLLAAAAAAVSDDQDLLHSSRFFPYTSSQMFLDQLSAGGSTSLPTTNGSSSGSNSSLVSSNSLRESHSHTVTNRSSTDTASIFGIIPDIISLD

As for B1, the binding result in the assay with 6HIS::MYC::PIAS1::6HIS is “binds”.
B2: the binding result in the assay with GST::hGDI1 is “binds”.
